Test results as given in the DeepSol protein solubility set.

Experiment: soluble on expression in E. coli; label from the status in PepcDB or PDB records

Soluble on expression in E. coli, not soluble:
MPTRKSKILDVALSNSVISNLNIMAPIGSSDHNTIKFTVQLLQNISVPKKMIPDFSKLDWPCCATYFENIEWGHIRTMFSQAVPTMPMPETSKPVPQYLRSFEQMVKNQFSKTIMSKTMNDFIEYIYLARKYRKKLRKYLSNLEVKLFKKKGNTLIDNDENEIVSELDKANLLASYFEAQYTNQNNTNFALDDDFVSDQPIPWVTDAEVLKVIMASKKSCSVTSDQVPFTFIKILSPLISSVLAQIFNLSMMRGQVPHAWTESIVIPLDKITNANNPTDFRPISLTSHLCRVYERCILAKIELFLIDNKFWSQNQHGFRPKKSTVTNMLESLNDWSKSIDLGEQIDIIYLDFSKAFDRLPHDLLLDKLVSLRMNKNLLIWLNEFLSNRSFRVRIGQTLSSRKLATCGVPQGAVLSPLLFGIYVNDISSILPEKVACKQFADDTKLYVSTPKTESENNLQSALDAVVDWTRGSKLTLNQSETVHVTVGKRRTDFKYHLDGYPIERKAITRDLGFLISEKLDFSEHWRKCINLAKFQLANMFNQYSTSNKKLMILLYKTFIRPRLEYGTVVSSPTKKSDEKAIESVQNAFTRRLYSRIKKRYINPTDKDYKTAMERNELFDLQTLSTRRKIIDRIQVIRMNNGKVDLKTSEFFEQQETHTRSKKKYIWSTVPIKHRVFQTFILLMVLVQFSIGLGNFARDIRNFGGAGSGNKTCDPSRDNDCDSPATVPSSTTKAPRYRNNTTESPPPTPPSSPPAPEGIYSFLQNNFIPRKINNLPVFQDVTTKGIQHVILVSSRLRTSLQTEKSRISQNSISYLIIDFLKSITLEIEALTNTSNCKPNSKDLRCPGKPLFCKFKNFDAAECKCSEPRAKVCKEDFEFDAQREYCTKSVKHPKDLRCEGELLFFKFHWNTTACHCINHQRDRVCAHDFQSDEDKKYQCNKKPTDLRCKKQKLYCKFHLDDKDCRCFESNQKACKKGVSGFYSSNDTLKFPSSIWRQFKLYFKKILQIFNRQMRGIFNVIHHRLHHSARKT
MKRRRLLQSLLAGLALQPFLAASANVRIRQARAWNSSESWRLVLELDGPPRYRTFSLQAPERLILDLPDAQLLATLSELPLDGPVRAIRSGQLGGGGTRIVLDLRQAVRPRSFALEPQAGKGHRLVLDLYPQALAAPPEPMLALARPLPSTGRDILVVVDAGHGGKDPGAVGSKGEREKDVALAIARLLARRIDREKGFKARLVRNGDVFVPLRKRPEVARRYNADMFVSVHADAAPRLTASGASVYALSEHGASSTMARWMAERENGADLIGNSGNLPLQGRDKVLAGVILDMALSSTIASSLDLGHSVLGQLSDVTALHQKRVEQAGFAVLKSPDIPSILVETGFISNRGDCRRLMDERHRQRLAEAIFAGVQGYFRQRPPAGSYLAALSAQPPG
MGSDKIHHHHHHMEDYEGKFSPSELKLKGIHTSTTFWTVGMIVQQYKNGHLVIPKIQRGYVWNEEKARRFIMSLLQGFPIPPIFIIELSGKFYVVDGQQRIRTILWFLGEDNELLEKLGPLRVPIKELAENYNEYGVTNLSEAIIKKIIFGNHPKEFNYKYFTKDFRQYFESLSIPVQHISISSGKEYILTDIFLRINQGSVKLSAMELWRVYYGKDIEEYFHKLNELARYTVAKIYEVSNGKISRQKLERFRIDEFILTFDVLINGLITPPNYIPKDAKLGAVIFSQKTTLKKVKIFVLENRRKVFKNNKGELKKFLDYLEREYKEILKMITYVLGEFTFRRPTIGNECQYALIRPSGNDINEAVFLYEVAIFKLLKDNGHSELIYENKDFIKHVILTSLIENDELFSRSTSTFRSVANKLELAKLTYKKIITKEDNITKDNLKRLLYEKFRASRVSNPVCPYCKEPISDISVADLAHIRPLAFGGQTYIHNLTLAHSTCNRRFGVRDISQYINRC
MGSDKIHHHHHHMNKDFTFTIKSIRLDEDYHPSDSTRITTNFANLARGSYRQANLRNALKMIDNSFNALANWDNPKGDRYSVELEIISVDMDIEGSGKTFPSIEILKTNIVDHQTNQRIEGIVGNNFSSYVRDYDFSVLLQAHNKDQPNFSIPDNFGELHGKLFQYFVNSNAYKQNFKKTPVICLSVSDNKTYHRTENQHPVLGVEYQPNESSLTEQYFKKMGLQVRYFMPPNSVAPLAFHFFGDLLNDYTNLELISTISTMGTFQKIYRPEIYNANAAAGKSYQPNLKNLDHSLTQIVYDREERSKLANEQGKFAEKHFIKPYQTVLEQWSANYV
